The record followed here is patent publication US20040052799A1, “Nucleic acid and amino acid sequences relating to Helicobacter pylori for diagnostics and therapeutics” (Astra Aktiebolag, priority 1996, published 2004).

Series [1] has as its target T1, H. pylori KDO-8-P synthase (Helicobacter pylori, UniProt Q9ZN55).
T1 construct: histidine tag; made in house
The series can be described thus: KDO-8-P synthase Assay 2, Pi release, molybdate-malachite green. The format is biochemical. Further details: unit not given here. Conditions: 25° C., 0.3 mM Ara5P, 0.3 mM PEP, 1.28 ug/ml enzyme. Here is the method:
Because of the potential interference of test compounds on the assay at 232 nm, a method was developed to measure the amount of Pi released in the reaction (Lanzatta et al. 1979).
This assay ws performed in a 96 well ELISA place, 50 ul assay mixtures containing 0,1 M Tris-acetate (pH 7.5), 0.3 mM Ara5P and 0.3 mM PEP, and 1.28 ug/ml of KDO-8-P synthase were incubated at 25° C. for different times. The reaction was then quenched with the addition of the molybdate-malachite green reagent. […] Under those conditions, the activity measured was 0.734-moles/min/mg protein, which was similar to the rate that was measured with the 232 nm assay.
When assayed in the presence of 0.02% Brij 35, the reaction proceeded faster. Under those conditions, the activity increased up to 1 mole/min mg protein.

Series [2] concerns the target T1, H. pylori KDO-8-P synthase. The series can be described thus: Long term storage stability of KDO-8-P synthase. The method, then:
The long term storage stability of the enzyme was tested over several conditions. […] Enzyme stored in 50% glycerol appeared to have less activity during extended storage at −20° C. (FIG. 9).

The target of series [3] is T1, H. pylori KDO-8-P synthase. The series can be described thus: KDO-8-P synthase Assay 1, PEP utilization at 232 nm. The class given is biochemical. Conditions: room temperature, 0.3 mM Ara5P, 0.3 mM PEP, pH 7.5. The method, then:
The enzyme reaction was performed in a final volume of […] containing 0.3 mM Ara5P, 0.3 mM PEP and 0.1 M Tris-acetate pH 7.5. Reactions were started with […] of purified enzyme and were followed spectrophotometrically at 232 nm for 15 minutes. As a control, the mixture minus enzyme was measured. No decrease in the absorbance at 232 nm was observed when no enzyme was added. […] An extinction coefficient of 2840 M cm^−1 of PEP, was used to estimate that at room temperature, the activity of the enzyme was 0.7-mole/min/mg protein.

The next series has as its target T2, H. pylori MurC (Helicobacter pylori, UniProt Q9ZLL2).
T2 sequence (Q9ZLL2 1-449): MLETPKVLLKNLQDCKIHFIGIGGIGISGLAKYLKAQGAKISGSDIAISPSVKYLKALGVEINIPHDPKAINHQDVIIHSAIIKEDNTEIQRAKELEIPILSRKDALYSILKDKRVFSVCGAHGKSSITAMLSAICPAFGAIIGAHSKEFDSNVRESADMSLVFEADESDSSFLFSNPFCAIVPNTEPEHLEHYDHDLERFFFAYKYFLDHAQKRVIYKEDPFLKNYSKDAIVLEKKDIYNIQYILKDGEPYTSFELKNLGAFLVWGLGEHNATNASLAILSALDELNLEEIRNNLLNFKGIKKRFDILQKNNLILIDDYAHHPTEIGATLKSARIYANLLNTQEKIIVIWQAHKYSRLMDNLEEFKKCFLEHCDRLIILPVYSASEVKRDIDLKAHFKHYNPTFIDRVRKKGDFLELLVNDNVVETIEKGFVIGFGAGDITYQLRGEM
The series can be described thus: MurC continuous assay, ADP formation coupled to pyruvate kinase/lactate dehydrogenase. The format is biochemical. Conditions: 500 μM UDP-N-acetylmuramate, 1 mM L-alanine, 1 mM ATP, 0.0018 mg/ml MurC, 37° C. The method, then: Purified H. pylori MurC was assayed using a continuous assay by coupling ADP formation with NADH oxidation by the pyruvate kinase/lactate dehydrogenase enzyme couple. Assay conditions were as follows: 100 mM Tris·HCl pH 8.0, 2.5 mM 2-mercaptoethanol, 20 mM KCl, 10 mM DTT, 2 mM MgCl2, 10 mM PEP, 0.15 mM NADH, 3.5 units of pyruvate kinase, 5.5 units of lactate dehydrogenase (Sigma), 500 μM UDP-N-acetylmuramate, 1 mM L-alanine, 1 mM ATP and 0.0018 mg/ml MurC at 37° C. […] Previously boiled enzyme could not support ADP formation. Steady state analysis of the dependence of reaction velocity on substrate concentration was done by varying the concentration of a single substrate in concentrations ranging from 0.5 to 5 times Km while holding the other two substrates constant at 5 times Km concentrations.

B1: KDO-8-P synthase: recombinant H. pylori KDO-8-P synthase, histidine-tagged fusion protein (SEQ ID NO: 6945) (protein, listed as Helicobacter pylori)
chain: MKTSNTKTPKPVLIAGPCVIESLENLRSIAIKLQPLANNERLDFYFKASFDKANRTSLESYRGPGLEKGLEMLQTIKDEFGYKILTDVHESYQASVAAKVADILQIPAFLCRQTDLIVEVSQTNAIVNIKKGQFMNPKDMQYSVLKALKTRDSSIQSPTYETALKNGVWLCERGSSFGYGNLVVDMRSLKIMREFAPVIFDATHSVQMPGGANGKSSGDSSFPPILPRAAAAVGIDGLFAETHIDPKNALSDGANMLKPDELEHLVTDMLKIQNLF
modifications: His tag; misc_feature (B) LOCATION 1...276; hypothetical: YES
Regarding B1, the activity measured in series [1] worked out at 0.734. The activity after storage entry in series [2] (50 mM phosphate pH 8.0 and 1 mM PEP, −20° C., at least three weeks) was “no loss of activity”; in series [2] (50% glycerol, extended storage at −20° C., FIG. 9), “less activity”. The “activity of the enzyme” value in series [3] was found to be 0.7 mole/min/mg protein.

B2: H. pylori MurC: His-tagged H. pylori MurC (SEQ ID NO: 7607) purified from E. coli (protein, listed as Helicobacter pylori)
chain: MLETPKVLLKNLQDCKIHFIGIGGIGISGLAKYLKAQGAKISGSDIAISPSVKYLKALGVEINIPHDPKAINHQDVIIHSAIIKEDNTEIQRAKELEIPILSRKDALYSILKDKRVFSVCGAHGKSSITAMLSAICPAFGAIIGAHSKEFDSNVRESADMSLVFEADESDSSFLFSNPFCAIVPNTEPEHLEHYDHDLERFFFAYKYFLDHAQKRVIYKEDPFLKNYSKDAIVLEKKDIYNIQYILKDGEPYTSFELKNLGAFLVWGLGEHNATNASLAILSALDELNLEEIRNNLLNFKGIKKRFDILQKNDLILIDDYAHHPTEIGTTLKSARIYANLLNTQEKIIVIWQAHKYSRLMDNLEEFKKCFLEHCDRLIILPVYSASEVKRDIDLKAHFKHYNPTFIDRVRKKGDFLELLVNDNVVETIEKGFVIGFGAGDITYQLRGEM
modifications: His tag; misc_feature (B) LOCATION 1...449; hypothetical: YES
In turn, B2 registered a specific activity in the series with H. pylori MurC of 5900 nmol/min/mg.
